# In paper PMC13397619:
# B1: NLV3 TCR beta chain (CDR3β only) (parent)
# chain: ASSPTGGSPSPLH
# B2: NLV3 TCR beta chain (CDR3β only) (parent)
# chain: ASSPTGGSPSPLH
# partner: NLCPMVATV
# Variants of: B1
# Test: T-Switch: Jurkat TCRβ−/− cells expressing a CDR3 saturation-mutagenesis library, stained with two peptide-HLA-A*02:01 tetramers (original and novel peptide) plus anti-CD3, FACS-sorted into four gates, gDNA sequenced
# Conditions: with both tetramers (double-negative gate, binds neither): HLA-A*02:01 with … and with …, tetramers 1 µg/mL, 30 min on ice, SP, DP and SW gates expanded about 10 days between rounds ('two to three rounds of selection' in the Methods), gate DN: OPPOSITE: higher = more of the variant in the gate that binds neither peptide = LESS binding (or no expression; inferred). Fold enrichment of the CDR3 variant in one FACS gate of a two-tetram, unresolved parent, parent is a CDR3 fragment, scale: fold enrichment, numbering: sequential-on-construct, sequence starts at 1
row,Variant,enrichment
1,[…] (CDR3 as printed); T5P derived by comparing it with the table's wild-type CDR3 ASSPTGGSPSPLH,1.04
2,[…] (CDR3 as printed); T5Q derived by comparing it with the table's wild-type CDR3 ASSPTGGSPSPLH,1.16
3,[…] (CDR3 as printed); T5R derived by comparing it with the table's wild-type CDR3 ASSPTGGSPSPLH,1.07
4,[…] (CDR3 as printed); T5S derived by comparing it with the table's wild-type CDR3 ASSPTGGSPSPLH,0.633
5,[…] (CDR3 as printed); T5V derived by comparing it with the table's wild-type CDR3 ASSPTGGSPSPLH,0.249
6,[…] (CDR3 as printed); T5W derived by comparing it with the table's wild-type CDR3 ASSPTGGSPSPLH,0
7,[…] (CDR3 as printed); T5Y derived by comparing it with the table's wild-type CDR3 ASSPTGGSPSPLH,0.587

# Same assay, conditions: with both tetramers (double-positive gate): HLA-A*02:01 with … and with …, tetramers 1 µg/mL, 30 min on ice, SP, DP and SW gates expanded about 10 days between rounds ('two to three rounds of selection' in the Methods), gate DP: higher = more of the variant in the gate that binds both peptides. Fold enrichment of the CDR3 variant in one FACS gate of a two-tetramer stain. SP/DP/SW gates were expanded and re-sorted bef, unresolved parent, parent is a CDR3 fragment, scale: fold enrichment, numbering: sequential-on-construct, sequence starts at 1
row,Variant,enrichment
1,[…] (CDR3 as printed); T5P derived by comparing it with the table's wild-type CDR3 ASSPTGGSPSPLH,0
2,[…] (CDR3 as printed); T5Q derived by comparing it with the table's wild-type CDR3 ASSPTGGSPSPLH,0
3,[…] (CDR3 as printed); T5R derived by comparing it with the table's wild-type CDR3 ASSPTGGSPSPLH,0
4,[…] (CDR3 as printed); T5S derived by comparing it with the table's wild-type CDR3 ASSPTGGSPSPLH,0
5,[…] (CDR3 as printed); T5V derived by comparing it with the table's wild-type CDR3 ASSPTGGSPSPLH,0
6,[…] (CDR3 as printed); T5W derived by comparing it with the table's wild-type CDR3 ASSPTGGSPSPLH,0
7,[…] (CDR3 as printed); T5Y derived by comparing it with the table's wild-type CDR3 ASSPTGGSPSPLH,0

# Same assay, conditions: with both tetramers (double-negative gate, binds neither): HLA-A*02:01 with … and with …, tetramers 1 µg/mL, 30 min on ice, SP, DP and SW gates expanded about 10 days between rounds ('two to three rounds of selection' in the Methods), gate DN: OPPOSITE: higher = more of the variant in the gate that binds neither peptide = LESS binding (or no expression; inferred). Fold enrichment of the CDR3 variant in one FACS gate of a two-tetram, unresolved parent, parent is a CDR3 fragment, zero in all gates, scale: fold enrichment, numbering: sequential-on-construct, …
row,Variant,enrichment
1,[…] (CDR3 as printed); G7P derived by comparing it with the table's wild-type CDR3 ASSPTGGSPSPLH,0
2,[…] (CDR3 as printed); S2L derived by comparing it with the table's wild-type CDR3 ASSPTGGSPSPLH,0

# Same assay, conditions: with both tetramers (double-positive gate): HLA-A*02:01 with … and with …, tetramers 1 µg/mL, 30 min on ice, SP, DP and SW gates expanded about 10 days between rounds ('two to three rounds of selection' in the Methods), gate DP: higher = more of the variant in the gate that binds both peptides. Fold enrichment of the CDR3 variant in one FACS gate of a two-tetramer stain. SP/DP/SW gates were expanded and re-sorted bef, unresolved parent, parent is a CDR3 fragment, zero in all gates, scale: fold enrichment, numbering: sequential-on-construct, sequence starts at 1
row,Variant,enrichment
1,[…] (CDR3 as printed); G7P derived by comparing it with the table's wild-type CDR3 ASSPTGGSPSPLH,0
2,[…] (CDR3 as printed); S2L derived by comparing it with the table's wild-type CDR3 ASSPTGGSPSPLH,0

# Variants of: B2
# Test: as above
# Conditions: with HLA-A*02:01 with peptide … (NLV 2-1, the novel peptide), tetramers 1 µg/mL, 30 min on ice, SP, DP and SW gates expanded about 10 days between rounds ('two to three rounds of selection' in the Methods), gate SW: higher = more of the variant in the gate that binds the novel peptide and not the original one = switched binding. Fold enrichment of the CDR3 variant in one FACS gate of a two-tetramer stain, unresolved parent, parent is a CDR3 fragment, scale: fold enrichment, numbering: sequential-on-construct, sequence starts at 1
row,Variant,enrichment
1,[…] (CDR3 as printed); A1C derived by comparing it with the table's wild-type CDR3 ASSPTGGSPSPLH,0
2,[…] (CDR3 as printed); A1D derived by comparing it with the table's wild-type CDR3 ASSPTGGSPSPLH,0
3,[…] (CDR3 as printed); A1E derived by comparing it with the table's wild-type CDR3 ASSPTGGSPSPLH,0
4,[…] (CDR3 as printed); A1F derived by comparing it with the table's wild-type CDR3 ASSPTGGSPSPLH,0
5,[…] (CDR3 as printed); A1G derived by comparing it with the table's wild-type CDR3 ASSPTGGSPSPLH,0
6,[…] (CDR3 as printed); A1H derived by comparing it with the table's wild-type CDR3 ASSPTGGSPSPLH,0
7,[…] (CDR3 as printed); A1I derived by comparing it with the table's wild-type CDR3 ASSPTGGSPSPLH,0
8,[…] (CDR3 as printed); A1K derived by comparing it with the table's wild-type CDR3 ASSPTGGSPSPLH,0
9,[…] (CDR3 as printed); A1L derived by comparing it with the table's wild-type CDR3 ASSPTGGSPSPLH,0
10,[…] (CDR3 as printed); A1M derived by comparing it with the table's wild-type CDR3 ASSPTGGSPSPLH,0
11,[…] (CDR3 as printed); A1N derived by comparing it with the table's wild-type CDR3 ASSPTGGSPSPLH,0
12,[…] (CDR3 as printed); A1P derived by comparing it with the table's wild-type CDR3 ASSPTGGSPSPLH,0
13,[…] (CDR3 as printed); A1Q derived by comparing it with the table's wild-type CDR3 ASSPTGGSPSPLH,0
14,[…] (CDR3 as printed); A1R derived by comparing it with the table's wild-type CDR3 ASSPTGGSPSPLH,0
15,[…] (CDR3 as printed); A1S derived by comparing it with the table's wild-type CDR3 ASSPTGGSPSPLH,0
16,[…] (CDR3 as printed); A1T derived by comparing it with the table's wild-type CDR3 ASSPTGGSPSPLH,0
17,[…] (CDR3 as printed); A1V derived by comparing it with the table's wild-type CDR3 ASSPTGGSPSPLH,0
18,[…] (CDR3 as printed); A1W derived by comparing it with the table's wild-type CDR3 ASSPTGGSPSPLH,0
19,[…] (CDR3 as printed); A1Y derived by comparing it with the table's wild-type CDR3 ASSPTGGSPSPLH,0
20,[…] (CDR3 as printed); G6A derived by comparing it with the table's wild-type CDR3 ASSPTGGSPSPLH,0
21,[…] (CDR3 as printed); G6C derived by comparing it with the table's wild-type CDR3 ASSPTGGSPSPLH,0
22,[…] (CDR3 as printed); G6D derived by comparing it with the table's wild-type CDR3 ASSPTGGSPSPLH,0
23,[…] (CDR3 as printed); G6E derived by comparing it with the table's wild-type CDR3 ASSPTGGSPSPLH,0

row,Variant,enrichment
1,[…] (CDR3 as printed); G6F derived by comparing it with the table's wild-type CDR3 ASSPTGGSPSPLH,0
2,[…] (CDR3 as printed); G6H derived by comparing it with the table's wild-type CDR3 ASSPTGGSPSPLH,0
3,[…] (CDR3 as printed); G6I derived by comparing it with the table's wild-type CDR3 ASSPTGGSPSPLH,0
4,[…] (CDR3 as printed); G6K derived by comparing it with the table's wild-type CDR3 ASSPTGGSPSPLH,0
5,[…] (CDR3 as printed); G6L derived by comparing it with the table's wild-type CDR3 ASSPTGGSPSPLH,0
6,[…] (CDR3 as printed); G6M derived by comparing it with the table's wild-type CDR3 ASSPTGGSPSPLH,0
7,[…] (CDR3 as printed); G6N derived by comparing it with the table's wild-type CDR3 ASSPTGGSPSPLH,0
8,[…] (CDR3 as printed); G6P derived by comparing it with the table's wild-type CDR3 ASSPTGGSPSPLH,0
9,[…] (CDR3 as printed); G6Q derived by comparing it with the table's wild-type CDR3 ASSPTGGSPSPLH,0
10,[…] (CDR3 as printed); G6R derived by comparing it with the table's wild-type CDR3 ASSPTGGSPSPLH,0
11,[…] (CDR3 as printed); G6S derived by comparing it with the table's wild-type CDR3 ASSPTGGSPSPLH,0
12,[…] (CDR3 as printed); G6T derived by comparing it with the table's wild-type CDR3 ASSPTGGSPSPLH,0
13,[…] (CDR3 as printed); G6V derived by comparing it with the table's wild-type CDR3 ASSPTGGSPSPLH,0
14,[…] (CDR3 as printed); G6W derived by comparing it with the table's wild-type CDR3 ASSPTGGSPSPLH,0
15,[…] (CDR3 as printed); G6Y derived by comparing it with the table's wild-type CDR3 ASSPTGGSPSPLH,0
16,[…] (CDR3 as printed); G7A derived by comparing it with the table's wild-type CDR3 ASSPTGGSPSPLH,0
17,[…] (CDR3 as printed); G7C derived by comparing it with the table's wild-type CDR3 ASSPTGGSPSPLH,0
18,[…] (CDR3 as printed); G7D derived by comparing it with the table's wild-type CDR3 ASSPTGGSPSPLH,0
19,[…] (CDR3 as printed); G7E derived by comparing it with the table's wild-type CDR3 ASSPTGGSPSPLH,0
20,[…] (CDR3 as printed); G7F derived by comparing it with the table's wild-type CDR3 ASSPTGGSPSPLH,0
21,[…] (CDR3 as printed); G7H derived by comparing it with the table's wild-type CDR3 ASSPTGGSPSPLH,0
22,[…] (CDR3 as printed); G7I derived by comparing it with the table's wild-type CDR3 ASSPTGGSPSPLH,0
23,[…] (CDR3 as printed); G7K derived by comparing it with the table's wild-type CDR3 ASSPTGGSPSPLH,0

row,Variant,enrichment
1,[…] (CDR3 as printed); G7L derived by comparing it with the table's wild-type CDR3 ASSPTGGSPSPLH,0
2,[…] (CDR3 as printed); G7M derived by comparing it with the table's wild-type CDR3 ASSPTGGSPSPLH,0
3,[…] (CDR3 as printed); G7N derived by comparing it with the table's wild-type CDR3 ASSPTGGSPSPLH,0
4,[…] (CDR3 as printed); G7Q derived by comparing it with the table's wild-type CDR3 ASSPTGGSPSPLH,0
5,[…] (CDR3 as printed); G7R derived by comparing it with the table's wild-type CDR3 ASSPTGGSPSPLH,0
6,[…] (CDR3 as printed); G7S derived by comparing it with the table's wild-type CDR3 ASSPTGGSPSPLH,0
7,[…] (CDR3 as printed); G7T derived by comparing it with the table's wild-type CDR3 ASSPTGGSPSPLH,0
8,[…] (CDR3 as printed); G7V derived by comparing it with the table's wild-type CDR3 ASSPTGGSPSPLH,0
9,[…] (CDR3 as printed); G7W derived by comparing it with the table's wild-type CDR3 ASSPTGGSPSPLH,0
10,[…] (CDR3 as printed); G7Y derived by comparing it with the table's wild-type CDR3 ASSPTGGSPSPLH,0
11,[…] (CDR3 as printed); H13A derived by comparing it with the table's wild-type CDR3 ASSPTGGSPSPLH,0
12,[…] (CDR3 as printed); H13C derived by comparing it with the table's wild-type CDR3 ASSPTGGSPSPLH,0
13,[…] (CDR3 as printed); H13D derived by comparing it with the table's wild-type CDR3 ASSPTGGSPSPLH,0
14,[…] (CDR3 as printed); H13E derived by comparing it with the table's wild-type CDR3 ASSPTGGSPSPLH,0
15,[…] (CDR3 as printed); H13F derived by comparing it with the table's wild-type CDR3 ASSPTGGSPSPLH,0
16,[…] (CDR3 as printed); H13G derived by comparing it with the table's wild-type CDR3 ASSPTGGSPSPLH,0
17,[…] (CDR3 as printed); H13I derived by comparing it with the table's wild-type CDR3 ASSPTGGSPSPLH,0
18,[…] (CDR3 as printed); H13K derived by comparing it with the table's wild-type CDR3 ASSPTGGSPSPLH,0
19,[…] (CDR3 as printed); H13L derived by comparing it with the table's wild-type CDR3 ASSPTGGSPSPLH,0
20,[…] (CDR3 as printed); H13M derived by comparing it with the table's wild-type CDR3 ASSPTGGSPSPLH,0
21,[…] (CDR3 as printed); H13N derived by comparing it with the table's wild-type CDR3 ASSPTGGSPSPLH,0
22,[…] (CDR3 as printed); H13P derived by comparing it with the table's wild-type CDR3 ASSPTGGSPSPLH,0
